A protein production outcome set (Wang et al. 2014)

assay: label from the status in PepcDB records

Which protein production does the source give for “MKEIESKTSAKIITDTFVRIFLIFSLLITIIVSGIVAFTSLQIRKSEGAALLNSVQTAATNGQVNWDEFKLDSEKDEKATFVRLTSPSGQREESQGTTNFLKSRKSWGNFSLLRDDIFLYSSKTSKNGTKAELWLNINVVVKSMIRAILVIIAVMIFLFFLALILIQKAARTISQPLTDIVVATDGKDVKQVPVSKNPLEVHQLSQSFNRLLNRLNQKIENEQQFVSDASHELRTPVAAIRGHVNLLKRRWHEHPEIVDESLSYIDEESMRMKVLIENLLTISRGNHLEIKKERINLSKFTDKVVSEIQLALRQKINFDIQTDLFVSMDKMALYKIIIIFLENAGKYSPSNSEITINITLENHQVDFQVADEGIGVPEEEKDNIFERFYRIDKSRSSEIPGTGLGLAIAKEYAQLNDAKVFVSNNSPKGSTFHLLMESIEN” here?
Its protein production is “failed”.

For “MKEIVTIENVSFNYHNRAVFKDFNLSIQEGDFLCVLGESGSGKSTLLGLILGLLKPSLGSVKIFNETLSNNAFLRQKIGYIAQGNSLFSHLNAMQNMTFCLNLQGINKQAAQKEAKALALKMGLDESLMDKFPNELSGGQAQRVGIIRGIIHRPELILLDEPFSALDSFNRKNLQDLIKEIHQNSHATFIMVTHDESEAQKLATKTLEIKALKQEQ”, which protein production is on record?
Its protein production is “failed”.

With “MKEKENIQKIIIAMIQTVVVYFSASLTLTLITPNFKSNKDLLFVLLIHYIVFYLSDFYRDFWSRGYLEEFKMVLKYSFYYIFISSSLFFIFKNSFTTTRLSFFTFIAMNSILLYLLNSFLKYYRKYSYAKFSRDTKVVLITNKDSLSKMTFRNKYDHNYIAVCILDSSEKDCYDLKHNSLRIINKDALTSELTCLTVDQAFINIPIELFGKYQIQDIINDIEAMGVIVNVNVEALSFDNIGEKRIQTFEGYSVITYSMKFYKYSHLIAKRFLDITGAIIGLLICGIVAIFLVPQIRKDGGPAIFSQNRVGRNGRIFRFYKFRSMRVDAEQIKKDLLVHNQMTGLMFKLDDDPRITKIGKFIRKTSIDELPQFYNVLKGDMSLVGTRPPTVDEYEKYNSTQKRRLSFKPGITGLWQISGRNNITDFDEIVKLDVQYINEWSIWSDIKIILLTLKVVLLGTGAK” as the sequence, how does the protein production read?
Its protein production is “failed”.

Which protein production does the source give for “MKEKIPFYNEKEFHYMMKKTKKGTFSGWYIINPENNSVEFSGSFNRQFKLNKPVIPVNTEYVTRKEFNEYKDSNDQRLTKIENKVDKLEIKVDKLEKKVDKLEVKVDKLVETVNAQGEDLNNFKVEVRGTLQSQGETLQLILQTLQGMSKRLDSVEGRLDSMDGRLDSMETRLDKIDPLKLEHHHHHH” here?
The protein production was “failed”.

Which protein production does the source give for “MKELNDIEVTCVSGGTLSGMIVGAVDGAATGMAIGGKWGGAGGFGFGALSQLVGLIVPTAMGAIAGGTVGLFTNAETAVGYLGQYRENFGPGDVGRTTI” here?
The protein production was “failed”.

Which protein production does the source give for “MKELNLTQGSVPKVLLQYAVPFLIANVLQALYGGADLFVVGQYDDSASVAAVAIGSQVMQTITGIILGITTGTTVLIAIATGAKDDKKVAFTIGSSVWLFSIIGVLLTLVMVVFHGRIAELMHTPIEAMADTKSYILVCSAGILFIVGYNVVCGILRGLGDSKTPLYFVALACVINIVLDFILVGYFHLGATGAAVATITAQGVSFMISLWFLYRHGFHFEFTRKDIRLNRNLAKKVMTLGAPIALQDALINISFLIITVIVNQMGVIASASLGVVEKIIVFAMLPPMAISSAVATMTAQNYGAGLIQRMNRCLASGIGIAFVFGVSVCVYSQFLPETLTAFFTKDAAVVSMAAEYLRGYSIDCIVVSFVFCINSYFSGQGNSLFPMIHSLIATFLFRIPLSYWFSQIDSSSLFIMGFAPPLSTVVSLLICIWYLRYTRKKVYLKGTMMPAMSN” here?
The protein production was “failed”.

For “MKERRAPQPVVARCKLVLVGDVQCGKTAMLQVLAKDCYPETYVPTVFENYTACLETEEQRVELSLWDTSGSPYYDNVRPLCYSDSDAVLLCFDISRPETVDSALKKWRTEILDYCPSTRVLLIGCKTDLRTDLSTLMELSHQKQAPISYEQGCAIAKQLGAEIYLEGSAFTSEKSIHSIFRTASMLCLNKPSPLPQKSPVRSLSKRLLHLPSRSELISSTFKKEKAKSCSIM”, which protein production is on record?
Its protein production is “failed”.

Which protein production does the source give for “MKERVIITGANGQLGKQLQEELNPEEYDIYPFDKKLLDITNISQVQQVVQEIRPHIIIHCAAYTKVDQAEKERDLAYVINAIGARNVAVASQLVGAKLVYISTDYVFQGDRPEGYDEFHNPAPINIYGASKYAGEQFVKELHNKYFIVRTSWLYGKYGNNFVKTMIRLGKEREEISVVADQIGSPTYVADLNVMINKLIHTSLYGTYHVSNTGSCSWFEFAKKIFSYANMKVNVLPVSTEEFGAAAARPKYSIFQHNMLRLNGFLQMPSWEEGLERFFIETKSH” here?
Its protein production is “not failed”.

For “MKETPRASGATNFILVGLGVIIALLGLLLAAGGVKLAGLGGSWYFLIGGLAMAIAGVLIARRKKAGAWLYAVFLVGTAIWALIDAGLVFWPLFSRLFMFGAIGMVVALVYPLLARANGASAGRGAYGVAGVMAVVLVVAVGNMFVAHPSVAPTGKGPGMTPVETGKEQKDWAHYGNTEGGSRFAALDQINRDNVNKLKVAWTYQTGDVAISDGNGAEDQLTPLQIGSKVFICTPHNNLIALDADTGKELWKNEINAQSKVWQRCRGMAYFDATAAIAQPTQPNSSPITGVSVAAGANCQRRLLTNTIDGRLIAVDADTGEFCQGFGNNGQVDLKAGLGDVPDSYYQLSSAPLMAGTTVVVGGRVADNVQTDMPGGVIRGFDVITGEMRWAFDPGNPEDRQAPQGDKTYVRSTPNSWAPMSYDPAMNTVFLPMGSSSTDIYGVERSKLDHTYGASVLALDATTGNQKWVFQTVHNDLWDFDLPMQPSLIDFTKDDGQSVPAVVIGTKAGQIYVLDRATGKPLTQVDEVPVKPSNIPNEPYSPTQPKSVGMPQIGAQTLTESDMWGATPYDQLLCRIDFKKMRYDGLYTAPGTDLSLSFPGSLGGMNWGSISTDPVHGFIFVNDMRLGLWIQMIPSQNKGGAASGGEALNTGMGAVPLKGTPYAVNKNRFLSVAGIPCQAPPFGTLTAIDMKTRQVAWQVPVGTVEDTGPLGIRMHLPIKIGLPTLGGTLSTQGGLVFIAGTQDFYLRAYDSSNGNEIWKARLPVGSQGGPMTYVSPKTGKQYVVITAGGARQSTDRGDYVISYALP”, which protein production is on record?
The protein production was “failed”.

For “MKEVRIVFQPGEISVPVAAGTTIMEAMNRSGLGEDFPCGGRGKCGKCRVKVREGREDFTAIDEDHLTAQELAEGVRLACATKINRDMMVEMQSPKKLQHHILIDSAARAFHIHPHLVKVFAEIAQPSLSEHKSDWQRLQESLAGLGCSVHDLQAPLSVLRRLPDTLRESTNRVTTIVYGSQVLGVEQGDTTGTLLGMAFDIGTTTIVGYLLDLNSGRELEVVSTLNPQAQYGGDVISRITFAGKEEKGLDTLHQAVTGAMNRLIGEAVDKAGVSRTQLYGISVAANTTMHHLFLGITPRSIGMSPYVSAINQGLVVAPGELGLEINKAGRVFVLPNIAGFVGADTTAVLLASDLEKSDHVTLILDIGTNGEIVLGSKNRMVACSAAAGPAFEGAQITSGMRGADGAIDHISFDHGLSYTVIGNGRPIGICGSALLDGVAGFVELGMINKRGKFLEPEKLTHPSALKLKDRLIKYEETWAFQLVEAGQTRHGRPILITQNDIRELQLAKGAIAAGVRILQEAMGIECEDIKEVLLAGAFGNYLNPHSACVIGLIPRELESRIKTIGNAAGNGAKIALLSAQEFSRAKDLAGGVSFVELGSYPGFNTIFAQNTYFKLDLEHHHHHH”, which protein production is on record?
The protein production was “not failed”.

Which protein production does the source give for “MKEVTPRFVELGQVSAIRTEPEIAYRSNQGVTRQRQQTKVFKLVSTYDKVAVKNAIRAAYRQVFERDLEPYIINSEFTALESKLSNNEINVKEFIEGLGTSELYMKEFYAPYPNTKVIEMGTKHFLGRAPLNQKEIQQYNQILASQGLKAFIGAMVNGMEYLQTFGEDTVPYRRFPTLPAANFPNTERLYNKLEHHHHHH” here?
The protein production was “not failed”.

Which protein production does the source give for “MKEYLTRSNISYFSIGSGTPIIFLHGLSLDKQSTCLFFEPLSNVGQYQRIYLDLPGMGNSDPISPSTSDNVLETLIEAIEEIIGARRFILYGHSYGGYLAQAIAFHLKDQTLGVFLTCPVITADHSKRLTGKHINILEEDINPVENKEYFADFLSMNVIINNQAWHDYQNLIIPGLQKEDKTFIDQLQNNYSFTFEEKLKNINYQFPFKIMVGRNDQVVGYQEQLKLINHNENGEIVLLNRTGHNLMIDQREAVGFHFDLFLDELNSNN” here?
Its protein production is “not failed”.

Which protein production does the source give for “MKFAVAVSGDRVNGPGESEEVQIYETDGGNVRLIEKYSNPALNATAARGVFMLKSALDHGANALVLSEIGSPGFNFIKNKMDVYIVPEMPVADALKLILEGKVSPATAPTHDHGHHH” here?
The protein production was “not failed”.

With “MKFDRHRRLRSSATMRDMVRENHVRKEDLIYPIFVVEKDDVKKEIKSLPGVYQISLNLLESELKEAYDLGIRAIMFFGVPNSKDDIGTGAYIHDGVIQQATRIAKKMYDDLLIVADTCLCEYTDHGHCGVIDDHTHDVDNDKSLPLLVKTAISQVEAGADIIAPSNMMDGFVAEIRRGLDEAGYYNIPIMSYGVKYASSFFGPFRDAADSAPSFGDRKTYQMDPANRLEALRELESDLKEGCDMMIVKPALSYLDIVRDVKNHTNVPVVAYNVSGEYSMTKAAAQNGWIDEERVVMEQMVSMKRAGADMIITYFAKDICRYLDK” as the sequence, how does the protein production read?
Its protein production is “failed”.

With “MKFEILQQLNAERAARRPAIVVTDTATGAQRLVKAADIAADPLAAELGKQLRMGKSASIEIDGRKLFLNVYAPTAKLVIVGAVHISQALAPLARSLGYDVTVVDPRTAFASPERFPDVPLIAEWPDVALPPLNIDHYTAFVALTHDPKIDDPALLHAFARDCFYIGALGSKKTHAKRLERLKGQGASDADLGRIHAPIGLAIGAVSPSEIAVSIMAEITAALRLPASSKAAAA” as the sequence, how does the protein production read?
Its protein production is “failed”.

Which protein production does the source give for “MKFEKRQVYYVVITFAICYAIQAYWGAVSNILTTLHKAIFPFLMGAGIAYIINIVMSVYERLYIKLFKGSRLLMAIKRSVSMILSYATFIGLIVWLFSIVIPDLISSLSSLLVIDTGALAKLVNNLNENKQISEVLNYMGTDKDLVSTLSGYSQQILKQVLSVLTNLLTSVSSIAATLLNVFVSFIFSIYVLANKEQLGRQFNLLIDTYLGSTGKTFHYVRHILHQRFHGFFVSQTLEAMILGSLTVIGMLIFQFPYALTVGVLVAFTALIPVVGAYIGVTIGFILIATESLTEAFLFVLFLILLQQFEGNVIYPKVVGGSIGLPSMWVLMAITIGGALWGILGMLLAVPVAATIYQIVKDHIIKRQTLRNCARTYR” here?
The protein production was “failed”.

With “MKFESYDLAPGIKKSLAEAGFNRPTDIQFKSIPPILAGEDVLAIAQTGTGKTAAFVIPVLNTLINVKKSEHTDISCLVMAPTRELAVQISEVFKKIGAYTRLRTVCITGGVEQEAQIAAADYGIDILVATPGRMFDLIYQKHIKITRVKILVLDEADHMLDLGFIKDIQDVKKFLPARHQTLFFSATINEEIKKLAYSLVKNPIRIQIAPKDRVSKNITHSVAFIGMDDKRFFLERLLKEHPESKVIVFVRTQVRADRVQAAMERVGLKSVTMHGGKEQQARDAAMDAFKNGTVHVLIATDISARGIDIAGVEYVVNYDMPEVAENYVHRVGRTGRGVSKGFAISFCSMEEKPVLDEVEEFLGKEINVIEITGKDYDATLDLTEDVNDNWKALLKEADAETTKKYVPKKKKKK” as the sequence, how does the protein production read?
The protein production was “failed”.

Which protein production does the source give for “MKFFGEIAERAGVPSVMGEILAGILFGALFLDVETGIITFFAQLGSIFLLFTAGYKEVSLRDLRPAVLVAFIPTLTQLVFAFAFGFMLGKIFNFTFLQSLFMAVALSPTAIGVVIRILIDLNYLSSRPGLVMLSSAVLDDIIAISLLSLIVTFARFNRAPSALAVLTISGKILLFLLIMYILGKYFFPRLFVHAQKMHAKEAVFSLVVMTALFSSYLAELFELHATIGAFIGGMLISEIPLAKIPDVQSKVEGLAYGILIPLFFAFIGYSIDLYALVKAGIFVPVVTLLALSGKLIGGFIGSKAIGFNFCESLAFGAGVMPRAGIELVMLTIGRGIGIIGEEIFSAMVFMVIVSILISPSALKFAIQAERKNKTGNELKVG” here?
Its protein production is “failed”.
